Results from publication PMC5487381, “Thioredoxin A Is Essential for Motility and Contributes to Host Infection of Listeria monocytogenes via Redox Interactions” (Frontiers in Cellular and Infection Microbiology, 2017).

Biological target: T1, PrfA, the central virulence regulator of Listeria (Listeria monocytogenes EGD-e, UniProt P22262 1-237)
T1 construct: PrfA, virulence regulator of the Crp/Fnr family, L. monocytogenes EGD-e, full-length ORF; The methods describe the recombinant proteins in general, not PrfA by name
T1 sequence: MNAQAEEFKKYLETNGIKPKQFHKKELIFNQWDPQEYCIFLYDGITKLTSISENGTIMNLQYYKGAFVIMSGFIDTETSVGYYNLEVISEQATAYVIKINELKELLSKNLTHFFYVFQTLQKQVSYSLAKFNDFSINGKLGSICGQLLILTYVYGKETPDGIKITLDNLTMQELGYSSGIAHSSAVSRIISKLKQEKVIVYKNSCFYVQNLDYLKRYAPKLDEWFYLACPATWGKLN
Experiment: ITC; TrxA, TrxAox or TrxA active-site mutants (80-200 uM) in the syringe, PrfA, MogR, GmaR or MogR and GmaR (8-20 uM) in the cuvette; 25 C; 25 mM Tris-HCl pH 7.5, 100 mM NaCl; 15 uL injections, 300 s spacing; 1:1 binding model
Conditions: both partners purified

B1: Listeria monocytogenes thioredoxin A (TrxA) (enzyme, Listeria monocytogenes EGD-e, UniProt P0A4L3 1-103, looked up)
chain: MVKEITDATFEQETSEGLVLTDFWATWCGPCRMVAPVLEEIQEERGEALKIVKMDVDENPETPGSFGVMSIPTLLIKKDGEVVETIIGYRPKEELDEVINKYV
notes: Thioredoxin A (TrxA, Lmo1233) of L. monocytogenes EGD-e, full-length ORF; pET30a(+) may add further vector-encoded residues between the His tag and the ORF; also called Lmo1233
binding result: binds
